Test results taken from patent US20190212291.

What was measured:
[1] = target: PEG-T40-Q
[2] = target: T1, PEG-T7-Q
T1 chain: GGPLGVRGKKC

[3] = target: PEG-T53-Q
[4] = target: PEG-T54-Q
[5] = target: PEG-T41-Q
[6] = target: PEG-T50-Q
[7] = target: PEG-T49-Q
[8] = target: PEG-T58-Q
[9] = target: PEG-T51-Q

B1: MMP26 (protein)
chain: TSISPGRCKWNKHTLTYRIINYPHDMKPSAVKDSIYNAVSIWSNVTPLIFQQVQNGDADIKVSFWQWAHEDGWPFDGPGGILGHAFLPNSGNPGVVHFDKNEHWSASDTGYNLFLVATHEIGHSLGLQHSGNQSSIMYPTYWYHDPRTFQLSADDIQRIQHLYGEKCSSDIP
Top hit (cleavage of PEG-coupled FRET substrate by recombinant proteases) [1]: MMP26
substrate cleavage [1]: T40 and T51 are cleaved by MMP26 and KLK4, respectively
Second hit (cleavage of PEG-coupled FRET substrate by recombinant proteases) [2]: MMP26
Second hit (cleavage of PEG-coupled FRET substrate by recombinant proteases) [3]: MMP26

B2: ADAM12 (protein)
chain: ETLKATKYVELVIVADNREFQRQGKDLEKVKQRLIEIANHVDKFYRPLNIRIVLVGVEVWNDMDKCSVSQDPFTSLHEFLDWRKMKLLPRKSHDNAQLVSGVYFQGTTIGMAPIMSMCTADQSGGIVMDHSDNPLGAAVTLAHELGHNFGMNHDTLDRGCSCQMAVEKGGCIMNASTGYPFPMVFSSCSRKDLETSLEKGMGVCLFNLPEVRESFGGQKCGNRFVEEGEECDCGEPEECMNRCCNATTCTLKPDAVCAHGLCCEDCQLKPAGTACRDSSNSCDLPEFCTGASPHCPANVYLHDGHSCQDVDGYCYNGICQTHEQQCVTLWGPGAKPAPGICFERVNSAGDPYGNCGKVSKSSFAKCEMRDAKCGKIQCQGGASRPVIGTNAVSIETNIPLQQGGRILCRGTHVYLGDDMPDPGLVLAGTKCADGKICLNRQCQNISVFGVHECAMQCHGRGVCNNRKNCHCEAHWAPPFCDKFGFGGSTDSGPIRQADNQG
Second hit (cleavage of PEG-coupled FRET substrate by recombinant proteases) [1]: ADAM12
Top hit (cleavage of PEG-coupled FRET substrate by recombinant proteases) [4]: ADAM12
Top hit (cleavage of PEG-coupled FRET substrate by recombinant proteases); additional note: Poorly cleaved [5]: ADAM12

B3: KLK14 (protein)
chain: IIGGHTCTRSSQPWQAALLAGPRRRFLCGGALLSGQWVITAAHCGRPILQVALGKHNLRRWEATQQVLRVVRQVTHPNYNSRTHDNDLMLLQLQQPARIGRAVRPIEVTQACASPGTSCRVSGWGTISSPIARYPASLQCVNINISPDEVCQKAYPRTITPGMVCAGVPQGGKDSCQGDSGGPLVCRGQLQGLVSWGMERCALPGYPGVYTNLCKYRSWIEETMRDK
Top hit (cleavage of PEG-coupled FRET substrate by recombinant proteases) [6]: KLK14
Top hit (cleavage of PEG-coupled FRET substrate by recombinant proteases) [7]: KLK14

B4: PRSS3 (protein)
chain: IVGGYTCEENSLPYQVSLNSGSHFCGGSLISEQWVVSAAHCYKTRIQVRLGEHNIKVLEGNEQFINAAKIIRHPKYNRDTLDNDIMLIKLSSPAVINARVSTISLPTTPPAAGTECLISGWGNTLSFGADYPDELKCLDAPVLTQAECKASYPGKITNSMFCVGFLEGGKDSCQRDSGGPVVCNGQLQGVVSWGHGCAWKNRPGVYTKVYNYVDWIKDTIAANS
Second hit (cleavage of PEG-coupled FRET substrate by recombinant proteases) [8]: PRSS3
Second hit (cleavage of PEG-coupled FRET substrate by recombinant proteases) [7]: PRSS3

B5: KLK12 (protein)
chain: IFNGTECGRNSQPWQVGLFEGTSLRCGGVLIDHRWVLTAAHCSGSRYWVRLGEHSLSQLDWTEQIRHSGFSVTHPGYLGASTSHEHDLRLLRLRLPVRVTSSVQPLPLPNDCATAGTECHVSGWGITNHPRNPFPDLLQCLNLSIVSHATCHGVYPGRITSNMVCAGGVPGQDACQGDSGGPLVCGGVLQGLVSWGSVGPCGQDGIPGVYTYICKYVDWIRMIMRNN
Second hit (cleavage of PEG-coupled FRET substrate by recombinant proteases) [6]: KLK12

B6: KLK4 (protein)
chain: IINGEDCSPHSQPWQAALVMENELFCSGVLVHPQWVLSAAHCFQNSYTIGLGLHSLEADQEPGSQMVEASLSVRHPEYNRPLLANDLMLIKLDESVSESDTIRSISIASQCPTAGNSCLVSGWGLLANGRMPTVLQCVNVSVVSEEVCSKLYDPLYHPSMFCAGGGHDQKDSCNGDSGGPLICNGYLQGLVSFGKAPCGQVGVPGVYTNLCKFTEWIEKTVQAS
Top hit (cleavage of PEG-coupled FRET substrate by recombinant proteases) [9]: KLK4
substrate cleavage [9]: T40 and T51 are cleaved by MMP26 and KLK4, respectively

B7: MMP11 (protein)
chain: FVLSGGRWEKTDLTYRILRFPWQLVQEQVRQTMAEALKVWSDVTPLTFTEVHEGRADIMIDFARYWHGDDLPFDGPGGILAHAFFPKTHREGDVHFDYDETWTIGDDQGTDLLQVAAHEFGHVLGLQHTTAAKALMSAFYTFRYPLSLSPDDCRGVQHLYGQPWPTVTSRTPALG
Top hit (cleavage of PEG-coupled FRET substrate by recombinant proteases) [3]: MMP11
